Results on four molecules are retold here after publication PMC8973293.

What is called Kd is the equilibrium constant for the complex coming apart. A low value points to higher affinity.

B1: HuE71-IgG1 (antibody, V domains shown)
VH: QVQLVQPGDELVKPGASVKLSCKASGYTFTSYWMQWVKQRPGQGLEWIGEINPSNGRTNYNEMFKSKAVLSVDKSVSTAYMQLSSLTAEDTAVYYCALYDGYYAMDYWGQGTLVTVSS
VL: DIVMTQSPSSLAVSVGERVTMSCKSSQSLLYSSNQKNYLAWYQQKPGQSPKLLIYWASTRESGVPDRFSGSGSGTDFTLTISSVKAEDVALYYCQQYHSYPFTFGQGTKLEIK
B2: HuE71-IgG1-Afuco (antibody, V domains shown)
VH: B1 VH
VL: B1 VL
B3: Desferrioxamine-HuE71-IgG1 (antibody, V domains shown)
VH: B1 VH
VL: B1 VL
B4: Desferrioxamine-HuE71-IgG1-Afuco (antibody, V domains shown)
VH: B1 VH
VL: B1 VL

In the first assay the target is murine FcγRIV (mouse). In words: SPR; Biacore T200; analysis of Fc-Fc receptor binding; who was immobilised and the conditions are not given. In general terms: In SPR one partner is held on a chip, and binding of the other changes the refractive index at the surface.
B1: the dissociation constant Kd was found to be 724 nM.
Same read-out and setting: under B2 stands 227 nM.
The same measure, in the same setting: then B3, with 539 nM; and B4, with 219 nM.

In another assay the target is human FcγRIIIa-158V (human). The assay is described as above.
B1 yielded a Kd of 873 nM.
The same measure, in the same setting: then B2, with 286 nM; and B3, with 664 nM.
Still for that read-out and setting: then B4, with 294 nM.
